Experiment [1] addresses HLA-B*18:01. As to the kind of experiment: IEDB peptide-MHC binding, purified MHC/competitive/radioactivity; filed as Kd, often an IC50 or EC50 that approximates it; ≥ and ≤ were set here for values at or beyond the usual limits of such assays.
The target of experiment [2] is HLA-B*40:02. The experiment is described as above.
In experiment [3] the target is HLA-B*44:02. The description is as above.
Experiment [4] concerns the target HLA-B*40:01. The experiment is described as above.
Experiment [5] deals with HLA-B*44:03. The description is as above.
The target in experiment [6] is HLA-B*45:01. Described as above.
Experiment [7] addresses HLA-A*02:01. Described as above. As to conditions: source organism: Hepatitis C virus subtype 3a.
Experiment [8] has as its target HLA-B*46:01. As to the kind of experiment: IEDB peptide-MHC binding, purified MHC/competitive/fluorescence; filed as Kd, often an IC50 or EC50 that approximates it; ≥ and ≤ were set here for values at or beyond the usual limits of such assays. The settings on record: source organism: Brucella melitensis bv. 1 str. 16M.
Experiment [9] has as its target HLA-B*58:01. Nature of the experiment: IEDB peptide-MHC binding, purified MHC/direct/fluorescence; filed as Kd, often an IC50 or EC50 that approximates it; ≥ and ≤ were set here for values at or beyond the usual limits of such assays. As to conditions: source organism: Brucella melitensis.
Experiment [10] deals with HLA-B*57:01. The description is as above. As to conditions: source organism: Brucella melitensis.
In experiment [11] the target is HLA-B*15:17. The description is as above. The settings on record: source organism: Brucella melitensis.
[12] abbreviates: source organism: Mammarenavirus guanaritoense.
Where [13] appears, read: source organism: Lymphocytic choriomeningitis virus (strain Armstrong).
[14] abbreviates: source organism: Mammarenavirus juninense.
[15] abbreviates: source organism: Mammarenavirus brazilense.
[16] abbreviates: source organism: SARS coronavirus Tor2.
[17] abbreviates: source organism: Mammarenavirus lassaense.

GEKSRCYSL: the equilibrium dissociation constant (Kd) in experiment [1] (setting [12]) was not below 77500 nM; in experiment [2] (setting [12]), 14.7 nM; in [3] (setting [12]) it was 2050 nM; in experiment [4] (setting [12]) it was 488 nM; in [5] (setting [12]), 11900 nM; in experiment [6] (setting [12]), 1240 nM.

For YVLPRRGPRL, the dissociation constant Kd in experiment [7] amounted to 3570 nM.

For ADQAIANGV, the Kd in experiment [1] (setting [13]) is not below 33800 nM; in experiment [2] (setting [13]), 3330 nM; in [3] (setting [13]), 14900 nM; in experiment [4] (setting [13]), not below 73500 nM; in experiment [5] (setting [13]) it was not below 30200 nM; in experiment [6] (setting [13]), not below 20700 nM.

Regarding MDYLILKNL, the Kd was not below 53700 nM in experiment [1] (setting [14]); 18.5 nM in experiment [2] (setting [14]); 11000 nM in experiment [3] (setting [14]); not below 33900 nM in experiment [4] (setting [14]); 2740 nM in [5] (setting [14]); not below 33200 nM in [6] (setting [14]).

Turning to IDNQKLSYL, the Kd in experiment [1] (setting [15]) is not below 77500 nM; in [2] (setting [15]), 6520 nM; in experiment [3] (setting [15]) it was not below 77900 nM; in experiment [4] (setting [15]), not below 76100 nM; in experiment [5] (setting [15]) it was not below 78100 nM; in experiment [6] (setting [15]), 17700 nM.

Consider VEFHLDGEVL, for which the Kd in experiment [1] (setting [16]) stood at 3230 nM; in [2] (setting [16]), 140 nM; in [3] (setting [16]), 3760 nM; in experiment [4] (setting [16]) it was 0.877 nM; in experiment [5] (setting [16]) it was 935 nM; in experiment [6] (setting [16]) it was 6950 nM.

For the sequence EELFYSYAT, the Kd in [1] (setting [16]) came out at 1040 nM; in experiment [2] (setting [16]) it was 24.6 nM; in [3] (setting [16]), 278 nM; in experiment [4] (setting [16]) it was 691 nM; in experiment [5] (setting [16]), 169 nM; in experiment [6] (setting [16]), 3.16 nM.

Take IAASNLEQF: the Kd in experiment [8] is 47.9 nM; in [9], 50 nM; in experiment [10], 202 nM; in experiment [11] it was 22.6 nM.

Take PEYFNSVCRL: the Kd in experiment [1] (setting [16]) was not below 70500 nM; in experiment [2] (setting [16]), 1250 nM; in experiment [3] (setting [16]), not below 32400 nM; in experiment [4] (setting [16]), 2830 nM; in [5] (setting [16]) it was 9390 nM; in experiment [6] (setting [16]), not below 33300 nM.

For GEPKESTPM, the Kd is not below 77500 nM in experiment [1] (setting [17]); 191 nM in experiment [2] (setting [17]); 9340 nM in experiment [3] (setting [17]); 1180 nM in experiment [4] (setting [17]); not below 78100 nM in experiment [5] (setting [17]); not below 77700 nM in experiment [6] (setting [17]).

As to KEGIVWVAT, the Kd in experiment [1] (setting [16]) is not below 62800 nM; in experiment [2] (setting [16]) it was 29.6 nM; in [3] (setting [16]) it was not below 20000 nM; in experiment [4] (setting [16]) it was 6260 nM; in experiment [5] (setting [16]) it was 12300 nM; in [6] (setting [16]), 69.6 nM.

On to GDNEIEYGF, for which the Kd in experiment [1] (setting [15]) was found to be 4070 nM; in experiment [2] (setting [15]), 1280 nM; in experiment [3] (setting [15]), 4340 nM; in [4] (setting [15]), 9480 nM; in experiment [5] (setting [15]), 17000 nM; in experiment [6] (setting [15]), 12200 nM.

As to TEFACVVAEA, the Kd in experiment [1] (setting [16]) amounted to 60.8 nM; in [2] (setting [16]), 14.6 nM; in [3] (setting [16]), 1440 nM; in experiment [4] (setting [16]), 1510 nM; in [5] (setting [16]) it was 393 nM; in [6] (setting [16]) it was 8.98 nM.

For orientation: Kd means the free concentration of one partner at which half of the binding sites on the other are occupied at equilibrium, for simple one-to-one binding.

The record behind these values is the Immune Epitope Database (IEDB).
